Experimental data reported in the supplement of paper PMC7125110.
± gives the standard error. For some assays here: This sample holds only a part of the variants without activity.

B1: glmS ribozyme (parent)
chain: AUAAAAGCGCCAGAACUACAGAAAUGUAGUUGACGAGGAGGAGGUUUAUCGAAUUUUCGGCGGAUGCCUCCAAA

Key:
Conditions in all cases: with glucosamine-6-phosphate
[1] = variants of: B1; experiment: kcat; higher = faster cleavage; RNA array
Procedure, shortened: (§1)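 Tracking of barcoded ribozyme variants used a hybridised Cy3 probe at 37 °C, after in situ transcription by E. coli RNA polymerase on sequenced MiSeq chips. The flowed solution held 40 μM to 10 mM glucosamine-6-phosphate in HEPES/KCl/Mg(OAc)2 buffer, and imaging ran over ~14 h. kobs was taken from exponential decay fits of normalised per-tile medians, and kcat and KM from weighted Michaelis–Menten fits.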

[2] = variants of: B1; experiment: KM; higher = weaker cofactor use; RNA array
Procedure, shortened: as §1

[3] = variants of: B1; experiment: self-cleavage kobs at 40 uM GlcN6P; higher = faster cleavage; RNA array
Procedure, shortened: as §1

[4] = variants of: B1; experiment: self-cleavage kobs at 160 uM GlcN6P; higher = faster cleavage; RNA array
Procedure, shortened: as §1

[5] = variants of: B1; experiment: self-cleavage kobs at 640 uM GlcN6P; higher = faster cleavage; RNA array
Procedure, shortened: as §1

[6] = variants of: B1; experiment: self-cleavage kobs at 2500 uM GlcN6P; higher = faster cleavage; RNA array
Procedure, shortened: as §1

[7] = variants of: B1; experiment: self-cleavage kobs at 10000 uM GlcN6P; higher = faster cleavage; RNA array
Procedure, shortened: as §1

| Variant | kcat [1] | KM [2] | self-cleavage kobs at 40 uM GlcN6P [3] | self-cleavage kobs at 160 uM GlcN6P [4] | self-cleavage kobs at 640 uM GlcN6P [5] | self-cleavage kobs at 2500 uM GlcN6P [6] | self-cleavage kobs at 10000 uM GlcN6P [7] |
| --- | --- | --- | --- | --- | --- | --- | --- |
| G62C C70A | 1.23e-05 ± 3.2e-06 s⁻¹ | – | – | – | – | – | – |
| A39C U47C | 0.00157 ± 0.00025 s⁻¹ | 2020 ± 510 µM | 4.25e-05 ± 5.6e-06 s⁻¹ | 0.000105 ± 1.6e-05 s⁻¹ | 0.000327 ± 3.9e-05 s⁻¹ | 0.000934 ± 0.00011 s⁻¹ | 0.00131 ± 0.00011 s⁻¹ |
| A12C U30G | 0.00614 ± 0.0015 s⁻¹ | 5240 ± 1800 µM | 6.93e-05 ± 1.4e-05 s⁻¹ | 0.000166 ± 3.1e-05 s⁻¹ | 0.000671 ± 0.00015 s⁻¹ | 0.00164 ± 0.00034 s⁻¹ | 0.00422 ± 0.00051 s⁻¹ |
| G41A C71G | 0.000168 ± 7.8e-06 s⁻¹ | 1080 ± 150 µM | – | – | 6.55e-05 ± 9.8e-06 s⁻¹ | 0.000106 ± 2.1e-05 s⁻¹ | 0.000154 ± 1.4e-05 s⁻¹ |
| A12U C58U | 7.97e-05 ± 5.4e-06 s⁻¹ | 662 ± 220 µM | < 1e-05 s⁻¹ | – | 4.45e-05 ± 1.4e-05 s⁻¹ | 5.86e-05 ± 9.3e-06 s⁻¹ | 7.81e-05 ± 1.1e-05 s⁻¹ |
| A52G U65C | 3.32e-05 ± 1.6e-06 s⁻¹ | 248 ± 83 µM | – | – | – | – | – |
| G32U C70A | 4.97e-05 ± 4.6e-06 s⁻¹ | – | – | – | 4.67e-05 ± 1.8e-05 s⁻¹ | 5.83e-05 ± 1.3e-05 s⁻¹ | 4.67e-05 ± 6.5e-06 s⁻¹ |
| U69A C71U | 7.42e-05 ± 1.9e-05 s⁻¹ | – | – | 3.69e-05 ± 1.3e-05 s⁻¹ | 9.28e-05 ± 1.6e-05 s⁻¹ | 8.39e-05 ± 1.6e-05 s⁻¹ | 4.27e-05 ± 1.7e-05 s⁻¹ |
| A15C C16A G62U | < 1e-05 s⁻¹ | – | < 1e-05 s⁻¹ | – | – | – | – |
| G32A G40A | 0.000781 ± 2.4e-05 s⁻¹ | 2220 ± 130 µM | – | 5.38e-05 ± 1.8e-05 s⁻¹ | 0.000175 ± 3.4e-05 s⁻¹ | 0.000414 ± 6.4e-05 s⁻¹ | 0.000639 ± 8.9e-05 s⁻¹ |
| C10U A39G | 3.18e-05 ± 4e-06 s⁻¹ | – | < 1e-05 s⁻¹ | – | – | 4.09e-05 ± 2e-05 s⁻¹ | 2.93e-05 ± 8.6e-06 s⁻¹ |
| G29A U45C | 0.000385 ± 7.7e-05 s⁻¹ | 2000 ± 720 µM | – | 3.6e-05 ± 1.4e-05 s⁻¹ | 8.28e-05 ± 1.4e-05 s⁻¹ | 0.000273 ± 4.1e-05 s⁻¹ | 0.000293 ± 5e-05 s⁻¹ |
| U57A C71G | 5.3e-05 ± 1.6e-05 s⁻¹ | – | – | – | – | – | – |
| C10U C68U | 1.42e-05 ± 6.5e-06 s⁻¹ | – | < 1e-05 s⁻¹ | – | – | – | – |
| G41U C68U | 5.17e-05 ± 8.8e-06 s⁻¹ | – | – | < 1e-05 s⁻¹ | – | – | – |
| G32A G41A | 0.00039 ± 9.1e-05 s⁻¹ | 4740 ± 2000 µM | – | – | 6.12e-05 ± 1.1e-05 s⁻¹ | 0.000116 ± 1.6e-05 s⁻¹ | 0.000279 ± 3e-05 s⁻¹ |
| G32A U54A C67G | 0.000168 ± 2.5e-05 s⁻¹ | 216 ± 100 µM | – | 8.09e-05 ± 1.6e-05 s⁻¹ | – | 0.000137 ± 2.7e-05 s⁻¹ | 0.00018 ± 3.3e-05 s⁻¹ |

| Variant | kcat [1] | KM [2] | self-cleavage kobs at 40 uM GlcN6P [3] | self-cleavage kobs at 160 uM GlcN6P [4] | self-cleavage kobs at 640 uM GlcN6P [5] | self-cleavage kobs at 2500 uM GlcN6P [6] | self-cleavage kobs at 10000 uM GlcN6P [7] |
| --- | --- | --- | --- | --- | --- | --- | --- |
| C10G A52U | < 1e-05 s⁻¹ | – | < 1e-05 s⁻¹ | < 1e-05 s⁻¹ | < 1e-05 s⁻¹ | – | – |
| A48U C70U | 0.000821 ± 0.00021 s⁻¹ | 2160 ± 900 µM | – | 5.07e-05 ± 8e-06 s⁻¹ | 0.000334 ± 5.5e-05 s⁻¹ | 0.000416 ± 6.2e-05 s⁻¹ | 0.000671 ± 9.3e-05 s⁻¹ |
| G41U C71U | 0.000239 ± 3e-05 s⁻¹ | 885 ± 270 µM | 1.98e-05 ± 8.9e-06 s⁻¹ | 4.38e-05 ± 8.4e-06 s⁻¹ | 8.95e-05 ± 9.5e-06 s⁻¹ | 0.000227 ± 2.9e-05 s⁻¹ | 0.000214 ± 1.7e-05 s⁻¹ |
| C50U G66A | 0.000123 ± 5.1e-05 s⁻¹ | – | – | – | – | – | 4.11e-05 ± 9.9e-06 s⁻¹ |
| G29U C71G | 0.000186 ± 4.6e-05 s⁻¹ | – | 3.23e-05 ± 9.4e-06 s⁻¹ | 6.19e-05 ± 9.3e-06 s⁻¹ | 8.34e-05 ± 7.2e-06 s⁻¹ | 0.000186 ± 2.6e-05 s⁻¹ | 0.000186 ± 1.9e-05 s⁻¹ |
| G7A A15G U54G | 3.72e-05 ± 1.5e-05 s⁻¹ | – | < 1e-05 s⁻¹ | < 1e-05 s⁻¹ | – | – | – |
| A12G A15U | 0.000449 ± 5.3e-05 s⁻¹ | 5850 ± 1100 µM | – | – | 4.86e-05 ± 6.8e-06 s⁻¹ | 0.000123 ± 1.6e-05 s⁻¹ | 0.000288 ± 2.6e-05 s⁻¹ |
| G41U U47C | 0.000156 ± 5.1e-05 s⁻¹ | – | – | – | 4.55e-05 ± 1.3e-05 s⁻¹ | 0.000205 ± 4.6e-05 s⁻¹ | 0.000128 ± 2.3e-05 s⁻¹ |
| U30G U31C | 0.00345 ± 0.00042 s⁻¹ | 2530 ± 520 µM | 4.81e-05 ± 8.9e-06 s⁻¹ | 0.000238 ± 3.9e-05 s⁻¹ | 0.000578 ± 0.00015 s⁻¹ | 0.00207 ± 0.0003 s⁻¹ | 0.00267 ± 0.00025 s⁻¹ |
| A6G | 0.00068 ± 9.8e-05 s⁻¹ | 2660 ± 490 µM | < 1e-05 s⁻¹ | 4.17e-05 ± 1.6e-06 s⁻¹ | 0.00013 ± 2.3e-06 s⁻¹ | 0.000467 ± 4.5e-05 s⁻¹ | 0.000533 ± 2.4e-05 s⁻¹ |
| C11A U65G | 3.43e-05 ± 4.3e-07 s⁻¹ | 777 ± 84 µM | < 1e-05 s⁻¹ | – | < 1e-05 s⁻¹ | – | 3.18e-05 ± 1.3e-05 s⁻¹ |
| A6C A14C | 1.13e-05 ± 5.2e-07 s⁻¹ | 5840 ± 600 µM | – | – | – | – | – |
| A6U G37U | < 1e-05 s⁻¹ | – | – | < 1e-05 s⁻¹ | – | < 1e-05 s⁻¹ | – |
| G37U C50A | < 1e-05 s⁻¹ | – | – | – | < 1e-05 s⁻¹ | – | < 1e-05 s⁻¹ |
| G32U U54A | 0.00121 ± 4.3e-05 s⁻¹ | 6510 ± 320 µM | – | – | 0.000107 ± 1.4e-05 s⁻¹ | 0.000344 ± 4.3e-05 s⁻¹ | 0.000726 ± 0.0001 s⁻¹ |
| G13C C16G | 0.000162 ± 5.6e-05 s⁻¹ | – | – | – | 4.75e-05 ± 2.1e-05 s⁻¹ | 4.43e-05 ± 1.5e-05 s⁻¹ | 0.000108 ± 1.6e-05 s⁻¹ |
